*1 amine or outer side, *2 acyl side, *3 side chain or, on linkers, in order; H or OH if unused. Where no end group is shown, it is not given here. Side-chain parts run from the residue outwards. [ ]: non-standard residue; d: D form. The star is where a group is joined. αMePhe(2-F) = C[C@](N)(Cc1ccccc1F)C(=O)O; γGlu = O=C(O)[C@H](CCC(=O)[*:2])N[*:1]; C14 diacid = O=C(O)CCCCCCCCCCCCC(=O)*; αMeY = C[C@](N)(Cc1ccc(O)cc1)C(=O)O; αMeL = CC(C)C[C@](C)(N)C(=O)O; αMeS = C[C@](N)(CO)C(=O)O; Orn = NCCC[C@H](N)C(=O)O; AEEA = NCCOCCOCC(=O)O; Aib = CC(C)(N)C(=O)O

Results on three molecules are retold here after patent publication US20230265151A1, “GIP/GLP1 CO-AGONIST COMPOUNDS” (priority 2020, published 2023).

Experiment in all cases: cell-based or functional assay
Experiment [1] has as its target T1, human GIP receptor (human, UniProt P48546 22-466).
T1 sequence (looked up): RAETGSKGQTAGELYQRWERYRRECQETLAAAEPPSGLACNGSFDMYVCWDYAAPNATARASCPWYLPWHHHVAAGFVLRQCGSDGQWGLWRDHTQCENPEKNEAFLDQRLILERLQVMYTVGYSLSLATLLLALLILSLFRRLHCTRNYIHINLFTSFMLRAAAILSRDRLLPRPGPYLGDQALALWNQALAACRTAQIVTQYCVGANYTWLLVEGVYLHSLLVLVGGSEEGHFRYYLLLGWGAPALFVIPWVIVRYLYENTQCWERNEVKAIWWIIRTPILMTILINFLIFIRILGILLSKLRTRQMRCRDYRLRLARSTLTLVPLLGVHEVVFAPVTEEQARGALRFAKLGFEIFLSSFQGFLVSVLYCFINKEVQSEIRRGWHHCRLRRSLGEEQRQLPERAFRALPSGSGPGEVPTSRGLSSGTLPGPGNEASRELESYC

The target in experiment [2] is human GLP-1 receptor (human, UniProt P43220 24-463).
Experiment [3] addresses T2, human GIP receptor (human, UniProt P48546 22-466).
T2 sequence (looked up): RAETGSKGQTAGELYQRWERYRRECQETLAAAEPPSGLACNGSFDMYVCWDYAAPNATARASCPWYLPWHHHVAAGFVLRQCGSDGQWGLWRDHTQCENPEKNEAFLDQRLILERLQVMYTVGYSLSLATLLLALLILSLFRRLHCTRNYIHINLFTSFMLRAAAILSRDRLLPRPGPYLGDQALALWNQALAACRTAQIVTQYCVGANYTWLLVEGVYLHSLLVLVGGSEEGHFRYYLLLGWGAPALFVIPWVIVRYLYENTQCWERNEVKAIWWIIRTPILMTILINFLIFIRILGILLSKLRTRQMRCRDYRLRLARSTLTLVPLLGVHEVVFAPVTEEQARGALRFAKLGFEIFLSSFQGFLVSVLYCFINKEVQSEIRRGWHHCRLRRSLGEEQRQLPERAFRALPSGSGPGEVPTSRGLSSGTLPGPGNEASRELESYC
This is another data set of the same source.

In experiment [4] the target is human GLP-1 receptor (human, UniProt P43220 24-463). The source holds these as a separate data set.

B1: Example 305 (peptide)
peptide: Y[Aib]EGT[αMePhe(2-F)]TSDV[αMeS]I[αMeL]LD[Orn]IAQ[Aib]EFIK([AEEA-AEEA-γGlu-C14 diacid])[αMeY]LIK([AEEA-AEEA-γGlu-C14 diacid])GGPSSGAPPPS-NH2
modifications: N-terminus assumed
SMILES: CC[C@H](C)[C@H](NC(=O)[C@H](CCCN)NC(=O)[C@H](CC(=O)O)NC(=O)[C@H](CC(C)C)NC(=O)[C@](C)(CC(C)C)NC(=O)[C@@H](NC(=O)[C@](C)(CO)NC(=O)[C@@H](NC(=O)[C@H](CC(=O)O)NC(=O)[C@H](CO)NC(=O)[C@@H](NC(=O)[C@](C)(Cc1ccccc1F)NC(=O)[C@@H](NC(=O)CNC(=O)[C@H](CCC(=O)O)NC(=O)C(C)(C)NC(=O)[C@@H](N)Cc1ccc(O)cc1)[C@@H](C)O)[C@@H](C)O)C(C)C)[C@@H](C)CC)C(=O)N[C@@H](C)C(=O)N[C@@H](CCC(N)=O)C(=O)NC(C)(C)C(=O)N[C@@H](CCC(=O)O)C(=O)N[C@@H](Cc1ccccc1)C(=O)N[C@H](C(=O)N[C@@H](CCCCNC(=O)COCCOCCNC(=O)COCCOCCNC(=O)CC[C@H](NC(=O)CCCCCCCCCCCCC(=O)O)C(=O)O)C(=O)N[C@@](C)(Cc1ccc(O)cc1)C(=O)N[C@@H](CC(C)C)C(=O)N[C@H](C(=O)N[C@@H](CCCCNC(=O)COCCOCCNC(=O)COCCOCCNC(=O)CC[C@H](NC(=O)CCCCCCCCCCCCC(=O)O)C(=O)O)C(=O)NCC(=O)NCC(=O)N1CCC[C@H]1C(=O)N[C@@H](CO)C(=O)N[C@@H](CO)C(=O)NCC(=O)N[C@@H](C)C(=O)N1CCC[C@H]1C(=O)N1CCC[C@H]1C(=O)N1CCC[C@H]1C(=O)N[C@@H](CO)C(N)=O)[C@@H](C)CC)[C@@H](C)CC
Consider B1, for which the “cAMP EC50 (1.0% HSA)” value in experiment [1] is 4.34 nM. Further, in experiment [2], the “cAMP EC50 (1.0% HSA)” value was found to be 80.3 nM and the “cAMP Emax (1.0% HSA)” value turned out to be 125%.

B2: Example 91 (peptide)
peptide: Y[Aib]EGT[αMePhe(2-F)]TSDV[Aib]I[αMeL]LD[Orn]K([AEEA-AEEA-γGlu-C14 diacid])AQ[Aib]EFI[dE][αMeY]LIEGGK([AEEA-AEEA-γGlu-C14 diacid])SSGAPPPS-NH2
modifications: N-terminus assumed
SMILES: CC[C@H](C)[C@H](NC(=O)[C@H](CC(C)C)NC(=O)[C@](C)(Cc1ccc(O)cc1)NC(=O)[C@@H](CCC(=O)O)NC(=O)[C@@H](NC(=O)[C@H](Cc1ccccc1)NC(=O)[C@H](CCC(=O)O)NC(=O)C(C)(C)NC(=O)[C@H](CCC(N)=O)NC(=O)[C@H](C)NC(=O)[C@H](CCCCNC(=O)COCCOCCNC(=O)COCCOCCNC(=O)CC[C@H](NC(=O)CCCCCCCCCCCCC(=O)O)C(=O)O)NC(=O)[C@H](CCCN)NC(=O)[C@H](CC(=O)O)NC(=O)[C@H](CC(C)C)NC(=O)[C@](C)(CC(C)C)NC(=O)[C@@H](NC(=O)C(C)(C)NC(=O)[C@@H](NC(=O)[C@H](CC(=O)O)NC(=O)[C@H](CO)NC(=O)[C@@H](NC(=O)[C@](C)(Cc1ccccc1F)NC(=O)[C@@H](NC(=O)CNC(=O)[C@H](CCC(=O)O)NC(=O)C(C)(C)NC(=O)[C@@H](N)Cc1ccc(O)cc1)[C@@H](C)O)[C@@H](C)O)C(C)C)[C@@H](C)CC)[C@@H](C)CC)C(=O)N[C@@H](CCC(=O)O)C(=O)NCC(=O)NCC(=O)N[C@@H](CCCCNC(=O)COCCOCCNC(=O)COCCOCCNC(=O)CC[C@H](NC(=O)CCCCCCCCCCCCC(=O)O)C(=O)O)C(=O)N[C@@H](CO)C(=O)N[C@@H](CO)C(=O)NCC(=O)N[C@@H](C)C(=O)N1CCC[C@H]1C(=O)N1CCC[C@H]1C(=O)N1CCC[C@H]1C(=O)N[C@@H](CO)C(N)=O
B2: the “EC50, cAMP” value in experiment [3] was found to be 0.0739 nM; in experiment [4], 0.153 nM. The results for the “Emax, cAMP” value in experiment [3] and in experiment [4] were 92.8% and 94%, respectively.

B3: Example 304 (peptide)
peptide: Y[Aib]EGT[αMePhe(2-F)]TSDV[Aib]I[αMeL]LD[Orn]IAQ[Aib]EFIK([AEEA-AEEA-γGlu-C14 diacid])[αMeY]LIK([AEEA-AEEA-γGlu-C14 diacid])GGPSSGAPPPS-NH2
Turning to B3, the “cAMP EC50 (1.0% HSA)” value in experiment [1] worked out at 4.83 nM; in experiment [2], 64.2 nM.
